Assay results: article PMC6025827 (Nature structural & molecular biology, 2018)

Biological target: the molecule itself
Assay: crystal structure

B1: miTRPV2QM (minimal rabbit TRPV2 construct with the four point mutations F470S, L505M, L508T and Q528E) (domain or fragment)
chain: LNYRKGAGASQPDLNRFDRDRLFNVVARGNPEDLAGLLEYLRRTSKYLTDSEYTEGSTGKTCLMKAVLNLQDGVNACIQPLLEIDRDSGNPQPLVNAQCTDEYYRGHSALHIAIEKRSLQCVKLLVENGANVHAKACGHFFQKNQDTCFYFGELPLSLAACTKQWDVVNYLLENPHQPASLQAQDSLGNTVLHALVMIADDSAENSALVVRMYDGLLQAGARLCPNVQLEGIPNLEGLTPLKLAAKEGKIEIFKHILQREFSAPCQSLSRKFTEWCYGPVRVSLYDLASVDSWEENSVLEIIAFHSRSPHRHRMVVLEPLNKLLQAKWDRLIPRFCFNFLCYLVYMLIFTAVAYHQPALEKQGFPPLKATAGNSMLLLGHILILLGGVYLLLGQLWYFWRRRLFIWISFMDSYSEILFLLQALLTVLSQVLCFLAIEWYLPLLVSSLVMGWTNLLYYTRGFQHTGIYSVMIEKVILRDLLRFLLVYLVFLFGFAVALVSLSREAQDEAPPYRSILDASLELFKFTIGMGELAFQEQLRFRGVVLLLLLAYVLLTYVLLLNMLIALMSETVNSVATDSWSIWKLQKAISVLEMENGYWWCRRKKQRAGVMLTVGTRPDGSPDERWCFRVGEMNWATWEQTLPRTLC
Which “stoichiometry N” value does the source give for B1 here?
Its value is 4.
